17 molecules from patent publication US20230212266A1 (FRED HUTCHINSON CANCER CENTER, published 2023) can be followed below.

What all share (test): BLI, mAb on anti-human Fc probe, antigen in solution
The target in assay [1] is T1, SARS-CoV-2 receptor binding domain (RBD) (SARS-CoV-2, UniProt P0DTC2 319-591).
In assay [2] the target is T1, SARS-CoV-2 receptor binding domain (RBD). This is another data set of the same source.
Assay [3] shares this target. This is another data set of the same source.
For assay [4] the target is unchanged. This is another data set of the same source.
Assay [5] has the same target. This is another data set of the same source.
Assay [6] shares this target. The source holds these as a separate data set.
Assay [7] shares this target. The source holds these as a separate data set.
The target is the same in assay [8]. This is another data set of the same source.
The target is the same in assay [9]. The source holds these as a separate data set.
Assay [10] shares this target. This is another data set of the same source.
The target is the same in assay [11]. This is another data set of the same source.
For assay [12] the target is unchanged. This is another data set of the same source.
Assay [13] shares this target. This is another data set of the same source.
For assay [14] the target is unchanged. This is another data set of the same source.
Assay [15] has the same target. This is another data set of the same source.
The target is the same in assay [16]. This is another data set of the same source.
For assay [17] the target is unchanged. The source holds these as a separate data set.

Numbering of substitutions follows the chain as printed. Like-named read-outs stand apart in the source and are kept apart here.

B1: CV2-2 (antibody, V domains shown)
VH: EVQLLESGGGLAQPGGSLRLSCAASGFTFSSYAMSWVRQAPGKGLEWVSAISGSGGNTYYADSLKGRFTISRDNSKSTLYLQMNSLRAEDTAVYYCAKGPMWQWLVRLSLVGDYWGQGTLVTVSS
VL: SYVLTQPPSVSVAPGQTARITCGGNNIGSKGVHWYQQKPGQAPVLVVFDDSDRPSGIPERFSGSNSGNTATLTISRVEAGDEADYYCQVWDSTSDHPGYVFGTGTKVTVL
notes: expressed as IgG
As to B1, the binding result in assay [1] was “no binding”.

B2: CV6 (antibody, V domains shown)
VH: QVQLVQSGAEVKKPGASVKVSCKVSGYTLTELSMHWVRQAPGKGLEWMGGFDPEDGETIYAQKFQGRVTMTEDTSTDTAYMELSSLRSEDTAVYYCATGPPYCSSTSCEHWFDPWGQGTLVTVSS
VL: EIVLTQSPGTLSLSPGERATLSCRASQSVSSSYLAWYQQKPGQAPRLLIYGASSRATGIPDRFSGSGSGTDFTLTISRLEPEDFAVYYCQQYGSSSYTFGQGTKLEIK
notes: expressed as IgG
As to B2, the binding result in [2] is “no binding”.

B3: CV2-4 (antibody, V domains shown)
VH: QVQLVQSGAEVKKPGSSVKVSCKASGGTFSSYAITWVRQAPGQGLEWMGGIIPIFGTANYAQKFQGRVTITADESTSTAYMELSSLRSEDTAVYYCVRVALYDSSGYSPDYWGQGTLVTVSS
VL: EIVLTQSPATLSLSPGERATLSCRASQSVSNFLAWYQQKPGQAPRLLIYDASNRATGIPARFSGSGSGTDFTLTISSLEPEDFAVYYCQHRSNWPPGITFGQGTRLEIK
notes: expressed as IgG
As to B3, in assay [3], the binding result was “no binding”.

B4: CV34 (antibody, V domains shown)
VH: QVQLVESGGGVVQPGRSLRLSCAASGFTFSSYAMHWVRQAPGKGLEWVAVISYDGSNKYYADSVKGRFTISRDNSKNTLYLQMNSLRAEDTAVYYCARSYGGSYYYGMDVWGQGTTVTVSS
VL: SYELTQPHSVSVATAQMARITCGGNNIGSKAVHWYQQKPGQDPVLVIYSDSNRPSGIPERFSGSNPGNTATLTISRIEAGDEADYYCQVWDSSSDHVVFGGGTKLTVL
notes: expressed as IgG
As to B4, the binding result in assay [4] is given as “no binding”.

B5: CV41 (antibody, V domains shown)
VH: B4 VH with S99T, Y100K, Y105F, Y106A, G107P, M108F, V110Y, T116L
VL: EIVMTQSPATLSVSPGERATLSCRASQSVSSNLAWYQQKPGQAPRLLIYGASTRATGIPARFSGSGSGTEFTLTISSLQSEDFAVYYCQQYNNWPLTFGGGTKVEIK
notes: expressed as IgG
Take B5: in assay [5], the binding result was “no binding”.

B6: CV2-1 (antibody, V domains shown)
VH: B4 VH with V93I, S99P, G101S, Y106A, G107Y, M108F, V110Y, T116L
VL: EIVMTQSPATLSVSPGERATLSCRASQSVSSNLAWYQQKPGQAPRLLIYGASTRATGIPARFSGSGSGTEFTLTISSLQSEDFAVYYCQQYNNWLALTFGGGTKVEIK
notes: expressed as IgG
In the case of B6, the binding result in [6] is given as “no binding”.

B7: CV37 (antibody, V domains shown)
VH: QVQLVQSGAEVKKPGASVKVSCKASGYTFTSYGISWVRQAPGQGLEWMGWISAYNGNTNYAQKLQGRVTMTTDTSTSTAYMELRSLRSDDTAVYYCARARVAYDYIWGSYRYKAFDYWGQGTLVTVSS
VL: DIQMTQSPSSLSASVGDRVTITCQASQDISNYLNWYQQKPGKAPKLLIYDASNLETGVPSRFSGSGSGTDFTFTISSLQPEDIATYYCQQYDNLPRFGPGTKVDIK
notes: expressed as IgG
Consider B7, for which the binding result in assay [7] is given as “no binding”.

B8: CV42 (antibody, V domains shown)
VH: QVQLVQSGAEVKKPGASVKVSCKASGYTFTSYGISWVRQAPGQGLEWMGWISAYNGNTNYAQKVQGRVTMTTDTSTSTAYMELRSLRSDDTAVYYCARDRGYAATFGVFDYWGQGTLVTVSS
VL: DIQMTQSPSSLSASVGDRVTITCRASQSISSYLNWYQQKPGKAPKFLIYAASSLQSGVPSRFSGSGSGTDFTLTISSLQPEDFATYYCQQTYITAFTFGPGTKVDIK
notes: expressed as IgG
Turning to B8, the binding result in assay [8] is given as “no binding”.

B9: CV33 (antibody, V domains shown)
VH: QVQLVQSGAEVKKPGASVKVSCKASGYTFTSYDISWVRQAPGQGLEWMGWISAYNGNTNYAQKLQGRVTMTTDTSTSTAYMELRSLRSDDTAVYYCARDSVAGIYYYYGMDVWGQGTTVTVSS
VL: QSVLTQPPSVSGAPGQRVTISCTGSSSNIGAGYDVHWYQQLPGTAPKLLIYGNSNRPSGVPDRFSGSKSGTSASLAITGLQAEDEADYYCQSYDSSLSGPVVFGGGTKLTVL
notes: expressed as IgG
For the molecule B9, in [9], the binding result is reported as “no binding”.

B10: CV48 (antibody, V domains shown)
VH: QVQLVQSGAEVKKPGSSVKVSCKASGGTFSSYTINWVRQAPGQGLEWMGRIIPILGIADYAQKFQGRVTITADKSTSTAYMELSSLRSEDTAVYYCARDLVEDTAMVTGAAAGTWGQGTLVTVSS
VL: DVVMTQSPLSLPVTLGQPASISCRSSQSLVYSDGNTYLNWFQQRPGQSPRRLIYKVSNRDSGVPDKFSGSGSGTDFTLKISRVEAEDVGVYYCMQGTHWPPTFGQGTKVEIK
notes: expressed as IgG
Turning to B10, the binding result in assay [10] is reported as “no binding”.

B11: CV32 (antibody, V domains shown)
VH: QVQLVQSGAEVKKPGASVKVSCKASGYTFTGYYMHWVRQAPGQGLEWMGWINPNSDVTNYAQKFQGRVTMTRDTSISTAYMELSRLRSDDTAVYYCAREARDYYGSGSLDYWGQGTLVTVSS
VL: QSVLTQPPSVSAAPGQKVTISCSGSSSNIGNNYVSWYQQLPGTAPKLLIYDNNKRPSGIPDRFSGSKSGTSATLGITGLQTGDEADYYCGTWDSSLSAVVFGGGTKLTVL
notes: expressed as IgG
For the molecule B11, the binding result in assay [11] is on record as “no binding”.

B12: CV36 (antibody, V domains shown)
VH: QVQLVQSGAEVKKPGASVKVSCKASGYTFTGYYMHWVRQAPGQGLEWMGWINPNSGGTNYVQKFQGRVTMTRDTSISTAYMELNRLRSDDTAVYFCARDLTTTAGTDYYYGMDVWGQGTTVTVSS
VL: SYELTQPPSVSVSPGQTARITCSGDALPKQYAYWYQQKPGQAPVLVIYKDTERPSGIPERFSGSSSGTTVTLTISGVQAEDEADYYCQSADSSGTYMIFGTGTKVTVL
notes: expressed as IgG
For B12, the binding result in [12] is on record as “no binding”.

B13: CV40 (antibody, V domains shown)
VH: QVQLVQSGAEVKKPGASVKVSCKASGYTFSSYGISWVRQDPGQGLEWMGWISAYNGNTNYAQKLQGRVTMTTDTSTSTAYMELRSLRSDDTAVYYCARVGLWWLGHPDAFDIWGQGTMVTVSS
VL: DIQMTQSPSSLSASVGDRVTITCRASQGIRNDLGWYQQKPGKAPKRLIYAASSLQSGVPSRFSGSGSGTEFTLTISSLQPEDFATYYCLQHNSYPLTFGGGTKVEIK
notes: expressed as IgG
With B13, in assay [13], the binding result is recorded as “no binding”.

B14: CV2-3 (antibody, V domains shown)
VH: QLQLQESGPGLVKPSETLSLTCTVSGGSISSSTYYWGWIRQPPGKGLEWIGNIYYTGSTYYNPSLKSRVTISVDTSKNHFSLRLSSVTAADTAVYYCARHNRFWSEDTPFDPWGQGTLVTVSS
VL: B13 VL
notes: expressed as IgG
Take B14: the binding result in assay [14] was “no binding”.

B15: CV47 (antibody, V domains shown)
VH: B13 VH with S30T, D40A, N55S, L83V, A109V
VL: B13 VL
notes: expressed as IgG
In the case of B15, the binding result in assay [15] is recorded as “no binding”.

B16: CV44 (antibody, V domains shown)
VH: QVQLVQSGAEVKKPGASVKVSCKASGYTFTSYYMHWVRQAPGQGLEWMGIINPSGGSTSYAQKFQGRVTMTRDTSTSTVYMELSSLRSEDTAVYYCARDLTSTSSSPYSYYYGMDVWGQGTTVTVSS
VL: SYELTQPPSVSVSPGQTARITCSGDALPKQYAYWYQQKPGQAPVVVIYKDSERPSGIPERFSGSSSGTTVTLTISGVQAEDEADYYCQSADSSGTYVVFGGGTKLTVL
notes: expressed as IgG
On to B16, for which, in [16], the binding result is “no binding”.

B17: CV39 (antibody, V domains shown)
VH: QVQLVESGGGVVQPGRSMRLSCAASGFNLSSYAMHWVRQASGKGLEWVSLISYDGSIKYYADSVKGRFTVSGDNSKNTLFLQMSSLRADDSALYYCVRGGVSGPNAFDIWGQGTTVTVSS
VL: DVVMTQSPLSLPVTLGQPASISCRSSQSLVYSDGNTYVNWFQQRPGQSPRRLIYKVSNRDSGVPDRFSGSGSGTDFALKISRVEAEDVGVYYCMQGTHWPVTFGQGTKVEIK
notes: expressed as IgG
Turning to B17, the binding result in assay [17] is reported as “no binding”.
